Source: US20240358826A1 (ORIONIS BIOSCIENCES, published 2024)

Molecular target: human CD8 alpha (human, UniProt P01732 22-235)
Experiment: cell-based or functional assay

Chain of human CD8 alpha (P01732 22-235): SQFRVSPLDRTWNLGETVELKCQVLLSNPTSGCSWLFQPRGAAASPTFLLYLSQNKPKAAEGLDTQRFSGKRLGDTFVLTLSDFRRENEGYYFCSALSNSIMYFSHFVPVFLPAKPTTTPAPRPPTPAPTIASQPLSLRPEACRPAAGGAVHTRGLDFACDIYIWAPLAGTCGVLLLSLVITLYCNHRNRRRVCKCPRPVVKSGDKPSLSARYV

Binder	EC50, CD8+ HekBlue-IL-1β cells (SEAP)
hCD8 VHH 1CDA65_20GGS_IL1α delta 1-6_1GGS_9xhis (other) QVQLQESGGGLVQPGGSLRLSCAASGSIFSINVMGWYRQTPGKERELVAKITNFGITSYADSAQGRFTISRGNAKNTVYLQMNSLKPEDTAVYYCNLDTTGWGPPPYQYWGQGTQVTVSSVDGGSGGSGGSGGSGGSGGSGGSGGSGGSGGSGGSGGSGGSGGSGGSGGSGGSGGSGGSGGSLSNVKYNFMRIIKYEFILNDALNQSIIRANDQYLTAAALHNLDEAVKFDMGAYKSSKDDAKITVILRISKTQLYVTAQDEDQPVLLKEMPEIPKTITGSETNLLFFWETHGTKNYFTSVAHPNLFIATKQDYWVCLAGGPPSITDFQILENQAGGSHHHHHHHHH	~0.3 ng/mL
IL1α delta 1-6_20GGS_hCD8 VHH 1CDA65_1GGS_9xhis (other) LSNVKYNFMRIIKYEFILNDALNQSIIRANDQYLTAAALHNLDEAVKFDMGAYKSSKDDAKITVILRISKTQLYVTAQDEDQPVLLKEMPEIPKTITGSETNLLFFWETHGTKNYFTSVAHPNLFIATKQDYWVCLAGGPPSITDFQILENQAGGSGGSGGSGGSGGSGGSGGSGGSGGSGGSGGSGGSGGSGGSGGSGGSGGSGGSGGSGGSQVQLQESGGGLVQPGGSLRLSCAASGSIFSINVMGWYRQTPGKERELVAKITNFGITSYADSAQGRFTISRGNAKNTVYLQMNSLKPEDTAVYYCNLDTTGWGPPPYQYWGQGTQVTVSSVDGGSHHHHHHHHH	~0.3 ng/mL
